Entries after “also recorded” stand apart in the source; their conditions may differ.
Columns and labels:
[1] = system: T cells; test: Mixed leucocyte reaction; format: cell-based, human; conditions: 200 pmol, 24 hours pre-incubation of stimulators, day 5
Description: DCR-2PBD's impact on antigen presentation was assessed by incubating DCR-2PBD or isotope-PBD with whole PBMC for 24 hours then washing, afterwards adding allogenic CFSE labeled T cells (naive CD4, magnetically separated) and measuring T cell division via reduction in CFSE expression. In more detail, T cells were depleted from PBMC by magnetic selection using an AutoMACS Pro with anti-CD3 mAb (HIT3a, Biolegend) with greater than 90% depletion in all samples. The CD3-depleted PBMC were incubated in complete RPMI media with DCR-2-PBD (200 pmol), isotype-PBD (200 pmol) or PBS for 24 hours. After washing to remove unbound ADC, the CD3-depleted PBMC were used to stimulate allogeneic CFSE labelled naive CD4+ T cells which had been prepared using a RosetteSep Kit (Stem Cell Technologies 17555). On day 5 the proliferation of T cells, identified using anti-CD3 AF700 (SP34-2), was assessed by CFSE reduction using flow cytometry. The results of the DCR-2-PBD and isotype-PBD groups were normalised to the PBS control group. […]
T cells were depleted from PBMC by magnetic selection using an AutoMACS Pro with anti-CD3 mAb (HIT3a, Biolegend) with greater than 90% depletion in all samples. […] On day 5 the proliferation of T cells, identified using anti-CD3 AF700 (SP34-2), was assessed by CFSE reduction using flow cytometry. […]

[2] = system: HL-60 cell line; test: Exposure time (kinetic) cytotoxicity on HL-60; format: cell-based
Description: Kinetic analysis was performed as above.
The exposure time required for DCR-2-PBD to cause cytotoxicity on the HL-60 cell line was assessed and the results are shown in FIG. 10. The viability of HL-60 cells was reduced to less than 10% within 5 hours of exposure to DCR-2PBD. At 12 hours, greater than 98% of HL-60 proliferation was inhibited while at 24 and 96 hours inhibition was greater than 99%.

[3] = system: HSPC colony forming units; test: Colony forming unit toxicity assay, cord blood HSPC; format: cell-based, human
Description: CFU colonies were plated at 2×10^4 cells/well in semi-solid methylcellulose medium (MethoCult Classic, Stemcell Technologies) in a 24 well plate (Corning, N.Y., USA), were cultured at 37° C. in 5% CO2 for 14 days and counted via microscopy. Whole cord blood PBMC was used. CD34^+ progenitors were continuously exposed to multiple concentrations of DCR-2 with equal concentrations of a secondary goat anti mouse antibody conjugated to PBD dimer. As a control, only the secondary PBD dimer conjugated antibody was used as above.
(§1) CB cells, plated at 2×10^4 cells/well in semi-solid methylcellulose medium (MethoCult Classic, Stemcell Technologies) in a 24 well plate (Corning, N.Y., USA), were cultured at 37° C. in 5% CO2 for 14 days when colony forming units (CFU) were scored. DCR-2-PBD or isotype-PBD was added to each well for continuous exposure. Three CB samples were tested with duplicate wells performed in each experiment.

[4] = system: primary AML; test: Colony forming unit assay, primary AML samples; format: cell-based, human
Description: as §1
Two primary AML samples were tested: CRGH1 with low CD300f expression (MFI ratio of 2.6) and CRGH9 with a high CD300f expression (MFI 109.9) (FIG. 9).

[5] = system: primary AML cells; test: Primary AML xenograft in NSG mice; format: in vivo, mouse; conditions: single dose 300 ug/kg
Description: For primary AML xenografts, NSG mice were irradiated with 150cGy 24 hours before 8×10^6 AML cells from CRGH11 (sample 10 Table S1) were injected iv. Once engraftment was established (>1% human CD45 positive events in PB), mice were given DCR-2-PBD or isotype-PBD. Mice were euthanised 6 days later and the BM was harvested for enumeration and surface marker analysis by flow cytometry.

B1: DCR-2PBD: anti-CD300f mAb DCR-2 conjugated to pyrrolobenzodiazepine dimer via Cathepsin B-cleavable linker MA-PEG4-VA-PBD; drug to antibody ratio 3.3 (conjugate)
VH: MESGGGLVQPGGPLKLSCAASGFGFSGSWMSWVRQAPGKGLEWIGQINPDSSTINYTPSLKDKFIISRDNAKNTLYLQINKVRSEDTALYYCARRGFFEGYSAWFAYW
VL: ILMTQTPKFLLVSAGDRVTITCKASQSVSNDVAWYQQKPGQSPSLLIYYASNRNTGVPDRFTGSGYETDFTFTISTVQAEDLAVYFCQQDYTSPWTFGGG
T cell proliferation in mixed lymphocyte reaction [1]: no impact; also recorded: does not reduce T cell proliferation
HL-60 proliferation inhibited ([2]; 12 hours exposure): greater than 98%
HL-60 proliferation inhibition ([2]; 24 hours exposure): greater than 99%
HL-60 proliferation inhibition ([2]; 96 hours exposure): greater than 99%
time dependent cytotoxicity ([2]; incubation up to 96 hours): rapid cytotoxicity
viability of HL-60 cells ([2]; within 5 hours of exposure): less than 10%
reduction in total CFUs ([3]; 7.84 pM (p=0.0033)): Significant reductions
inhibition of all major CFU subtypes ([3]; 32.9 pM): inhibited
reduction in total CFUs ([3]; 39.21 pM (p<0.0001)): Significant reductions
inhibition of all major CFU subtypes ([3]; 196.1 pM): inhibited
reduction in total CFUs ([3]; 196.1 pM (p<0.0001)): Significant reductions
toxicity against primary AML CFU ([4]; CRGH1 (low CD300f expression), 196.1 pM): Significant toxicity
toxicity against primary AML CFU ([4]; CRGH9 (high CD300f expression), all dose levels (P<0.001)): Significant toxicity
AML cells as mean percentage of total cells in BM [5]: 12.32%
human AML cells in BM, mean total enumeration [5]: 0.37×10^6

From patent US20220296727A1, “Immunoconjugate” (DendroCyte BioTech Pty Ltd, priority 2019, published 2022)
